This note sets out measurements from PMC6339671, “NudCL2 is an Hsp90 cochaperone to regulate sister chromatid cohesion by stabilizing cohesin subunits” (Cellular and Molecular Life Sciences: CMLS, 2018).

The target in assay [1] is T1, His-Smc1α (human, UniProt Q14683 1-1233).
T1 construct: Full-length human SMC1A cloned by RT-PCR into pFastBac-HT A (His-tag vector); pFastBac-HT A is recalled to add the His tag at the N-terminus; also called His-tagged Smc1α; SMC1A; source: Sf9 insect cells (Bac-to-Bac baculovirus), purified with nickel-nitrilotriacetic acid beads
T1 sequence (looked up): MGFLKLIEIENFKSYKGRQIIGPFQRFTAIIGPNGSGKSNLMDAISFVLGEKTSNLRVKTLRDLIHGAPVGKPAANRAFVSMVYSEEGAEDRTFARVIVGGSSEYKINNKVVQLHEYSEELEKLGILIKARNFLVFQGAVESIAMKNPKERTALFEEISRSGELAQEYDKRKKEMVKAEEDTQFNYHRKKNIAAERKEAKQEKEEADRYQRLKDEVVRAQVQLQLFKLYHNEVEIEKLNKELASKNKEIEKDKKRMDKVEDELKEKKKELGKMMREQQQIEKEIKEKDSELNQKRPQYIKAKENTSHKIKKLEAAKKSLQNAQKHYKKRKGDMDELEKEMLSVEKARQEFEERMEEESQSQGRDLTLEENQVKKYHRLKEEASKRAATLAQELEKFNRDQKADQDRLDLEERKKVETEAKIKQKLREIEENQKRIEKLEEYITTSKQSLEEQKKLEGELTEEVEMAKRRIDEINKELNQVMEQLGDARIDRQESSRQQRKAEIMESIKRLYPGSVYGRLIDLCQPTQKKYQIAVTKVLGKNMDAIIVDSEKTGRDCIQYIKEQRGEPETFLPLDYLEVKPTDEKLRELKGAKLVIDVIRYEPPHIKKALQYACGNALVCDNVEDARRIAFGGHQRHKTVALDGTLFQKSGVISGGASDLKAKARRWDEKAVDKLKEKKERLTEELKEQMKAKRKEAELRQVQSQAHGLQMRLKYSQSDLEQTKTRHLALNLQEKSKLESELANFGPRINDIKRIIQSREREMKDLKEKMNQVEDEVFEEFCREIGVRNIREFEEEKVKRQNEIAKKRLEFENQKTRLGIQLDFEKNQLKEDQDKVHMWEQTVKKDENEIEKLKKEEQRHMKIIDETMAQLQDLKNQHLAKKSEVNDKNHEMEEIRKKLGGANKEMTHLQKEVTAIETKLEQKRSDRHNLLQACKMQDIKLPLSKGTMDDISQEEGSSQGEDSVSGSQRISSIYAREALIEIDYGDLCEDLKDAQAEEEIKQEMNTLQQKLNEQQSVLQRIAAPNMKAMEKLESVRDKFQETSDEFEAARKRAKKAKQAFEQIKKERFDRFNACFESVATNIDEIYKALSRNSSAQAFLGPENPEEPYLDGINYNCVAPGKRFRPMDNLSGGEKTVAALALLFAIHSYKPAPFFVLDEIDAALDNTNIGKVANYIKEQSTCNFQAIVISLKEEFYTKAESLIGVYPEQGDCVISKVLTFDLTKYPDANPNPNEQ
In words: pull-down; GST or GST-NudCL2 protein incubated with each of the purified His-tagged cohesin subunits from Sf9 cells; Western analysis. To be noted: both partners purified.

Assay [2] has as its target T2, His-Smc3 (human, UniProt Q9UQE7 1-1217).
T2 construct: Full-length human SMC3 cloned by RT-PCR into pFastBac-HT A (His-tag vector); pFastBac-HT A is recalled to add the His tag at the N-terminus; also called His-tagged Smc3; source: Sf9 insect cells (Bac-to-Bac baculovirus), purified with nickel-nitrilotriacetic acid beads
Described as above. To be noted: both partners purified.

T2 sequence (Q9UQE7 whole entry): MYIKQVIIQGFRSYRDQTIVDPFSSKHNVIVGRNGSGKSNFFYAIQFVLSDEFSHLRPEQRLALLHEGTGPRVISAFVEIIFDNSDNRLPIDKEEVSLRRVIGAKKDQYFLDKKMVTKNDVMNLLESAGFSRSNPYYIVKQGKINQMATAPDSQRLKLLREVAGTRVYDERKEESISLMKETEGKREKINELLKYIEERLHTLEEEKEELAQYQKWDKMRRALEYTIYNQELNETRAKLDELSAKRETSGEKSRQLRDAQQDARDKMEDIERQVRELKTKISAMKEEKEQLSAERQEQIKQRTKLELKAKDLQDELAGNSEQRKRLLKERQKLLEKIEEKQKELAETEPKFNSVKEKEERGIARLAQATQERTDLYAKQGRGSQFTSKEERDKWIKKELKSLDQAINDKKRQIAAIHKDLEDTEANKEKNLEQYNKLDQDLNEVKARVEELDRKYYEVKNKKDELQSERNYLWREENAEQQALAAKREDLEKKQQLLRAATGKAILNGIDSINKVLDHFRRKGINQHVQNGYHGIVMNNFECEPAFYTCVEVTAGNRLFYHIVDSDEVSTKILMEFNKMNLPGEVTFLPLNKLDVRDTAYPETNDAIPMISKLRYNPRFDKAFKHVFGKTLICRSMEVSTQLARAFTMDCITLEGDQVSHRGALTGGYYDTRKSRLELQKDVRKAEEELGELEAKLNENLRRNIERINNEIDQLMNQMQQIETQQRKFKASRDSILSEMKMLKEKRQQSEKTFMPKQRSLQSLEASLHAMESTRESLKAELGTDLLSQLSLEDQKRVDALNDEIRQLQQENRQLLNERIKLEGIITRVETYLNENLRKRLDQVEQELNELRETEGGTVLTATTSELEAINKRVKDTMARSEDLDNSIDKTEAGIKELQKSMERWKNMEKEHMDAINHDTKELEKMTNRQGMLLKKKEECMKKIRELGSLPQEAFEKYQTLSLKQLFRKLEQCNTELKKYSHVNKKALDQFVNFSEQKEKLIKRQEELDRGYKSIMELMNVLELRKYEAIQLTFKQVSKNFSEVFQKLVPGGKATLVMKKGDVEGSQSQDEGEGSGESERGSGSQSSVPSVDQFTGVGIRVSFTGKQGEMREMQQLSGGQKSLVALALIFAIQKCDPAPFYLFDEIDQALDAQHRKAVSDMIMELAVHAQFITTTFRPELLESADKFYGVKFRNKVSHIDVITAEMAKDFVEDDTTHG

B1: GST-NudCL2 (natural protein, human, UniProt Q8WVJ2 1-157, looked up)
chain: MSAPFEERSGVVPCGTPWGQWYQTLEEVFIEVQVPPGTRAQDIQCGLQSRHVALSVGGREILKGKLFDSTIADEGTWTLEDRKMVRIVLTKTKRDAANCWTSLLESEYAADPWVQDQMQRKLTLERFQKENPGFDFSGAEISGNYTKGGPDFSNLEK
notes: NudCL2 (NudC-like protein 2), human; also called NudC-like protein 2; source: purified from bacteria
Consider B1, for which the binding result in assay [1] and in assay [2] was “binds” each time.
